Laboratory results as given in PMC8778164, “Towards Complete Tumor Resection: Novel Dual-Modality Probes for Improved Image-Guided Surgery of GRPR-Expressing Prostate Cancer” (Pharmaceutics, 2022).

Legend:
[1] = Distribution coefficient (LogD7.4), shake-flask method; type: physicochemical; conditions: n-octanol/PBS pH 7.4, n = 3; read-out: Log D7.4
Protocol: Distribution coefficients (LogD7.4) for the ^111In-labeled compounds were determined by a shake-flask method. The experiments were performed in triplicate for each radioligand. A sample containing the radioligand (0.5–2.0 MBq) was dissolved in 1 mL solution of phosphate-buffered saline (0.01 M, pH 7.4) and n-octanol (v:v = 1:1). The vials were vortexed vigorously and then centrifuged at 10,000 rpm for 3 min, for phase separation. Samples (10 μL) of each phase were taken out and analyzed using a gamma counter. LogD7.4 values were calculated, using the following equation: LogD7.4 = log {(counts in n-octanol phase)/(counts in PBS phase)}.

[2] = Stability in mouse serum at 37 °C (iTLC); type: in vitro ADME; conditions: for Stability in Mouse Serum (%) 30 min / Stability in Mouse Serum (%) 1 h / Stability in Mouse Serum (%) 2 h / Stability in Mouse Serum (%) 4 h: intact labeled ligand after incubation at 37 °C in mouse serum, n = 1; for Protein-Bound Fraction at 4 h (%): mouse serum
Protocol: Stability in PBS was determined by incubating 20 µL of the labeled compounds (∼11 MBq) in PBS (80 µL) at 37 °C. Radiochemical purity was determined by iTLC at 30 min, 1 h, 2 h and 4 h. Stability in the serum was carried out by adding 70 µL of the labeled compound (∼35 MBq) to 330 µL of mouse serum (Merck, Haarlerbergweg, The Netherlands). The mixture was incubated at 37 °C. At different time points (30 min, 1 h, 2 h and 4 h), an aliquot of the mixture (50 µL) was added to 50 µL ACN. The vial was vortexed and centrifuged at 10,000 rpm for 20 min and the supernatant was analyzed by iTLC.

[3] = In vivo SPECT/CT imaging, VOI quantification; conditions: male, Balb/c nu/nu, mouse, tumor and kidneys (in vivo VOIs), iv, total radioactivity; from SPECT VOI %IA/mL, 2 h p.i., i.v., non-blocked, n = 3; read-out: Tumor-to-kidney ratio (SPECT)
Protocol: Seven-week-old male Balb/c nu/nu-specific and opportunistic pathogen-free (SOPF) mice (Janvier Labs, Le Genest-Saint-Isle, France) were housed in individually ventilated cages, with 4 mice per cage. Upon arrival, mice were acclimated for 1 week, with access to food and water ad libitum. […]
Mice (n = 3 per probe) were intravenously injected in the tail vein with 200 µL of Kolliphor® HS 15 (Merck, Haarlerbergweg, The Netherlands) in PBS (0.06 mg/mL) containing [^111In]In-12 (13.40 ± 0.76 MBq, ~670 pmol) or [^111In]In-15 (17.50 ± 1.78 MBq, ~875 pmol). […] The CT and registered, attenuation-corrected SPECT images were analyzed using PMOD (PMOD 3.9, Zurich, Switzerland) and quantification was performed by placing volumes of interest (VOIs) around the tumors and kidneys. An Eppendorf tube filled with a solution of indium-111 of a known activity was measured to determine the calibration factor. The total activity measured in the VOI was divided by the volume of all VOI pixel values and multiplied by the calibration factor to obtain the percentage of injected activity per volume unit (%IA/mL).

[4] = system: PC-3-xenograft Balb/c nu/nu mice; assay: Ex vivo optical (fluorescence, IVIS) imaging of organs; type: in vivo, mouse; conditions: ex vivo after dissection, ex/em 640/680 nm
Protocol: Seven-week-old male Balb/c nu/nu-specific and opportunistic pathogen-free (SOPF) mice (Janvier Labs, Le Genest-Saint-Isle, France) were housed in individually ventilated cages, with 4 mice per cage. Upon arrival, mice were acclimated for 1 week, with access to food and water ad libitum. Mice were subcutaneously inoculated on the right shoulder with PC-3 cells (5 × 10^6 cells suspended in 100 µL of 1/3 Matrigel (Corning Inc., Corning, NY, USA) and 2/3 Hank’s balanced salt solution (Gibco). PC-3 xenografts were allowed to grow for 3 weeks. Tumor sizes were 391 ± 173 mm^3 at the start of the studies. All animal experiments were approved by the Animal Welfare Committee of the Erasmus MC and were conducted in agreement with institutional guidelines (license number: AVD101002017867, 28 September 2017).
Before gamma counter measurements, the tumor half, pancreas, kidneys, lungs, small intestine, large intestine, liver, muscle, and bone were placed in two petri dishes and ex vivo optical imaging was performed with the IVIS Spectrum system (Perkin Elmer, Waltham, MA, USA) using the following settings for all measurements: FOV 12.6 cm, medium binning, f2, 0.5 s exposure with an excitation/emission filter of 640 nm/680 nm. Living Image version 4.5.2 software (Perkin Elmer) was used to perform data analysis by drawing a region of interest around the organ/tissue to quantify the radiant efficiency {(photons/second/cm^2/steradian)/(μW/cm^2)}.

[5] = blocked with 150 nmol unlabeled NeoB, n = 1
[6] = non-blocked, n = 3, listed as [111In]In‐12
[7] = non-blocked, n = 3, listed as [111In]In‐15

With CC(C)CC(CC(C)C)NC(=O)[C@H](Cc1c[nH]cn1)NC(=O)CNC(=O)[C@@H](NC(=O)[C@H](C)NC(=O)[C@H](Cc1c[nH]c2ccccc12)NC(=O)[C@H](CCC(N)=O)NC(=O)[C@@H](Cc1ccccc1)NC(=O)COCC(=O)Nc1ccc(CNC(=O)[C@H](CCCCNC(=O)CCOCCOCCOCCOCCNC(=O)OC2CCCC3C=NN=C(c4ccc(CNC(=O)CCCCC[N+]5=C(/C=C/C=C/C=C6N(C)c7ccc(S(=O)(=O)O)cc7C6(C)C)C(C)(C)c6cc(S(=O)(=O)[O-])ccc65)cc4)C3CC2)NC(=O)CN2CCN(CC(=O)O)CCN(CC(=O)O)CCN(CC(=O)O)CC2)cc1)C(C)C (some centres unmarked) [[^111In]In-12, metal not drawn] the logD [1] was -1.66 ± 0.01, the “Stability in Mouse Serum (%) 30 min” value [2] was 96.3% and the “Stability in Mouse Serum (%) 1 h” value [2] was 96.4%. The “Stability in Mouse Serum (%) 2 h” value [2] was 96.5%, the “Stability in Mouse Serum (%) 4 h” value [2] was 96.5% and the “Protein-Bound Fraction at 4 h (%)” value [2] was 7.0%. For the same compound, the tissue to tissue ratio at 2 h [3] was 0.47 ± 0.05, the “Fluorescent signal, bone (average radiant efficiency)” value (shortened to “Fluorescent signal, bone”) [4, 5] was 0.32 × 10^8 p/sec/cm^2/sr per µW/cm and the “Fluorescent signal, kidneys (average radiant efficiency)” value (from here on “Fluorescent signal, kidneys”) [4, 5] was 5.42 × 10^8 p/sec/cm^2/sr per µW/cm. The “Fluorescent signal, large intestine (average radiant efficiency)” value (“Fluorescent signal, large intestine” below) [4, 5] was 0.47 × 10^8 p/sec/cm^2/sr per µW/cm, the “Fluorescent signal, liver (average radiant efficiency)” value (shortened to “Fluorescent signal, liver”) [4, 5] was 2.42 × 10^8 p/sec/cm^2/sr per µW/cm and the “Fluorescent signal, lungs (average radiant efficiency)” value (shortened to “Fluorescent signal, lungs”) [4, 5] was 2.88 × 10^8 p/sec/cm^2/sr per µW/cm. For the same compound, the “Fluorescent signal, muscle (average radiant efficiency)” value (shortened to “Fluorescent signal, muscle”) [4, 5] was 0.76 × 10^8 p/sec/cm^2/sr per µW/cm, the “Fluorescent signal, pancreas (average radiant efficiency)” value (“Fluorescent signal, pancreas” below) [4, 5] was 0.66 × 10^8 p/sec/cm^2/sr per µW/cm and the “Fluorescent signal, small intestine (average radiant efficiency)” value (“Fluorescent signal, small intestine” below) [4, 5] was 0.44 × 10^8 p/sec/cm^2/sr per µW/cm. The “Fluorescent signal, tumor (average radiant efficiency)” value (shortened to “Fluorescent signal, tumor”) [4, 5] was 1.67 × 10^8 p/sec/cm^2/sr per µW/cm, the “Fluorescent signal, bone” value ([4]; non-blocked, n = 3) was 0.40 ± 0.11 × 10^8 p/sec/cm^2/sr per µW/cm and the “Fluorescent signal, kidneys” value ([4]; non-blocked, n = 3) was 9.41 ± 0.92 × 10^8 p/sec/cm^2/sr per µW/cm^2. For the same compound, the “Fluorescent signal, large intestine” value ([4]; non-blocked, n = 3) was 0.68 ± 0.19 × 10^8 p/sec/cm^2/sr per µW/cm, the “Fluorescent signal, liver” value ([4]; non-blocked, n = 3) was 2.20 ± 0.09 × 10^8 p/sec/cm^2/sr per µW/cm and the “Fluorescent signal, lungs” value ([4]; non-blocked, n = 3) was 1.93 ± 0.18 × 10^8 p/sec/cm^2/sr per µW/cm. The “Fluorescent signal, muscle” value ([4]; non-blocked, n = 3) was 0.78 ± 0.08 × 10^8 p/sec/cm^2/sr per µW/cm, the “Fluorescent signal, pancreas” value ([4]; non-blocked, n = 3) was 6.32 ± 0.50 × 10^8 p/sec/cm^2/sr per µW/cm^2 and the “Fluorescent signal, small intestine” value ([4]; non-blocked, n = 3) was 0.85 ± 0.30 × 10^8 p/sec/cm^2/sr per µW/cm. The “Fluorescent signal, tumor” value ([4]; non-blocked, n = 3) was 4.31 ± 1.03 × 10^8 p/sec/cm^2/sr per µW/cm^2, the “Fluorescent signal, kidneys” value [4, 6] was 9.41 ± 0.92 × 10^8 p/sec/cm^2/sr per µW/cm and the “Fluorescent signal, pancreas” value [4, 6] was 6.32 ± 0.50 × 10^8 p/sec/cm^2/sr per µW/cm. The “Fluorescent signal, tumor” value [4, 6] was 4.31 ± 1.03 × 10^8 p/sec/cm^2/sr per µW/cm.
For CC(C)CC(CC(C)C)NC(=O)[C@H](Cc1c[nH]cn1)NC(=O)CNC(=O)[C@@H](NC(=O)[C@H](C)NC(=O)[C@H](Cc1c[nH]c2ccccc12)NC(=O)[C@H](CCC(N)=O)NC(=O)[C@@H](Cc1ccccc1)NC(=O)CCOCCOCCOCCOCCNC(=O)[C@H](CCCCNC(=O)OC1CCCC2C=NN=C(c3ccc(CNC(=O)CCCCC[N+]4=C(/C=C/C=C/C=C5N(C)c6ccc(S(=O)(=O)O)cc6C5(C)C)C(C)(C)c5cc(S(=O)(=O)[O-])ccc54)cc3)C2CC1)NC(=O)CN1CCN(CC(=O)O)CCN(CC(=O)O)CCN(CC(=O)O)CC1)C(C)C (some centres unmarked) [[^111In]In-15, metal not drawn], the logD [1] was -1.75 ± 0.09, the “Stability in Mouse Serum (%) 30 min” value [2] was 96.9% and the “Stability in Mouse Serum (%) 1 h” value [2] was 96.7%. For the same compound, the “Stability in Mouse Serum (%) 2 h” value [2] was 96.9%, the “Stability in Mouse Serum (%) 4 h” value [2] was 97.1% and the “Protein-Bound Fraction at 4 h (%)” value [2] was 6.5%. The tissue to tissue ratio at 2 h [3] was 0.49 ± 0.05, the “Fluorescent signal, bone” value [4, 5] was 0.55 × 10^8 p/sec/cm^2/sr per µW/cm and the “Fluorescent signal, kidneys” value [4, 5] was 6.09 × 10^8 p/sec/cm^2/sr per µW/cm. The “Fluorescent signal, large intestine” value [4, 5] was 0.49 × 10^8 p/sec/cm^2/sr per µW/cm, the “Fluorescent signal, liver” value [4, 5] was 1.75 × 10^8 p/sec/cm^2/sr per µW/cm and the “Fluorescent signal, lungs” value [4, 5] was 2.93 × 10^8 p/sec/cm^2/sr per µW/cm. For the same compound, the “Fluorescent signal, muscle” value [4, 5] was 0.96 × 10^8 p/sec/cm^2/sr per µW/cm, the “Fluorescent signal, pancreas” value [4, 5] was 1.17 × 10^8 p/sec/cm^2/sr per µW/cm and the “Fluorescent signal, small intestine” value [4, 5] was 0.38 × 10^8 p/sec/cm^2/sr per µW/cm. For the same compound, the “Fluorescent signal, tumor” value [4, 5] was 1.47 × 10^8 p/sec/cm^2/sr per µW/cm, the “Fluorescent signal, bone” value ([4]; non-blocked, n = 3) was 0.74 ± 0.24 × 10^8 p/sec/cm^2/sr per µW/cm and the “Fluorescent signal, kidneys” value ([4]; non-blocked, n = 3) was 7.80 ± 0.92 × 10^8 p/sec/cm^2/sr per µW/cm^2. The “Fluorescent signal, large intestine” value ([4]; non-blocked, n = 3) was 0.94 ± 0.28 × 10^8 p/sec/cm^2/sr per µW/cm, the “Fluorescent signal, liver” value ([4]; non-blocked, n = 3) was 2.38 ± 0.21 × 10^8 p/sec/cm^2/sr per µW/cm and the “Fluorescent signal, lungs” value ([4]; non-blocked, n = 3) was 2.25 ± 0.70 × 10^8 p/sec/cm^2/sr per µW/cm. The “Fluorescent signal, muscle” value ([4]; non-blocked, n = 3) was 1.08 ± 0.16 × 10^8 p/sec/cm^2/sr per µW/cm, the “Fluorescent signal, pancreas” value ([4]; non-blocked, n = 3) was 5.12 ± 1.93 × 10^8 p/sec/cm^2/sr per µW/cm^2 and the “Fluorescent signal, small intestine” value ([4]; non-blocked, n = 3) was 0.85 ± 0.04 × 10^8 p/sec/cm^2/sr per µW/cm. For the same compound, the “Fluorescent signal, tumor” value ([4]; non-blocked, n = 3) was 4.66 ± 1.35 × 10^8 p/sec/cm^2/sr per µW/cm^2, the “Fluorescent signal, kidneys” value [4, 7] was 7.80 ± 0.92 × 10^8 p/sec/cm^2/sr per µW/cm and the “Fluorescent signal, pancreas” value [4, 7] was 5.12 ± 1.93 × 10^8 p/sec/cm^2/sr per µW/cm. For the same compound, the “Fluorescent signal, tumor” value [4, 7] was 4.66 ± 1.35 × 10^8 p/sec/cm^2/sr per µW/cm.
